Measurements published in the supplement of paper PMC7877785.
± gives the uncertainty stated by the source.

Assay: self-splicing fitness, log relative to wild type (ln ratio); higher = more splicing; Tetrahymena group I intron in knt gene, E. coli kanamycin selection, DiMSum; sequences stand for … in CUCUCU…GGAGGGAAAAGUUAUCAGGCAUGCACCUGGUAGCUAGUCUUUAAACCAAUAGAUUGCAUCGGUUUAAAAGGCAAGACCGUCAAAUUGCGGGAAAGGGGUCAACAGCCGUUCAGUACCAAGUCUCAGGGGAAACUUUGAGAUGGCCUUGCAAAGGGUAUGGUAAUAAGCUGACGGACAUGGUCCUAACCACGCAGCCAAGUCCUAAGUCAACAGAUCUUCUGUUGAUAUGGAUGCAGUUCACAGACUAAAUGUCGGUCGGGGAAGAUGUAUUCUUCUCAUAAGAUAUAGUCGGACCUCUCCUUAAUGGGAGCUAGCGGAUGAAGUGAUGCAACACUGGAGCCGCUGGGAACUAAUUUGUAUGCGAAAGUAUAUUGAUUAGUUUUGGAGUACUCGUGGUCG
Method in brief: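 Pooled colonies went to amplicon sequencing on an Illumina HiSeq 2500 after six replicate transformations. The plates were LB agar with 100 μg/mL carbenicillin, 50 μM IPTG and 0.2% rhamnose, with or without 25 μg/mL kanamycin, incubated overnight at 37°C or 30°C. The E. coli BL21(DE3) library had all eight P1ex-region intron nucleotides randomised, the intron placed in the knt kanamycin-resistance gene on pET-22b(+). DiMSum fitness is the error-weighted combination of replicate fold changes, kanamycin against none, normalised to wild type.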

Sequence	self-splicing fitness (ln) (30 °C)	self-splicing fitness (ln) (37 °C)
ACUUAGCAAUAUUACGCCCA	-1.29 ± 0.21	-0.528 ± 0.22
ACUUAGCAAUAUUACGCUCG	-0.969 ± 0.1	-0.233 ± 0.16
ACUUAGCAAUAUUACGCUUU	-1.69 ± 0.088	-1.42 ± 0.14
ACUUAGCAAUAUUACGGAAC	-3.24 ± 0.19	-1.07 ± 0.34
ACUUAGCAAUAUUACGGCGA	-1.21 ± 0.21	-0.343 ± 0.21
ACUUAGCAAUAUUACGGCUC	-0.897 ± 0.061	-0.503 ± 0.077
ACUUAGCAAUAUUACGGGCG	-0.769 ± 0.078	-0.483 ± 0.085
ACUUAGCAAUAUUACGGGUC	-3.35 ± 0.13	-3.27 ± 0.2
ACUUAGCAAUAUUACGGGUG	-1.14 ± 0.059	-0.754 ± 0.085
ACUUAGCAAUAUUACGGUCG	-2.52 ± 0.17	-1.35 ± 0.2
ACUUAGCAAUAUUACGUCCG	-2.09 ± 0.2	-0.774 ± 0.25
ACUUAGCAAUAUUACGUCUA	-1.67 ± 0.16	-1.83 ± 0.17
ACUUAGCAAUAUUACGUGUG	-2.2 ± 0.09	-1.06 ± 0.087
ACUUAGCAAUAUUACGUUGC	-3.9 ± 0.38	-1.8 ± 0.26
ACUUAGCAAUAUUACGUUGU	-2.9 ± 0.15	-2.12 ± 0.15
AGAAAGCAAUAUUACGAAGA	-2.95 ± 0.24	-2.27 ± 0.33
AGAAAGCAAUAUUACGACGG	-2.82 ± 0.24	-0.965 ± 0.29
AGAAAGCAAUAUUACGAGCG	-1.21 ± 0.095	-0.574 ± 0.13
AGAAAGCAAUAUUACGAUAA	-1.21 ± 0.054	-0.539 ± 0.073
AGAAAGCAAUAUUACGAUCG	-0.0642 ± 0.072	-0.026 ± 0.091
AGAAAGCAAUAUUACGAUUA	-0.175 ± 0.12	-0.183 ± 0.15
AGAAAGCAAUAUUACGCACG	-0.407 ± 0.18	-0.88 ± 0.22
AGAAAGCAAUAUUACGCAGC	-2.92 ± 0.2	-2.33 ± 0.2
AGAAAGCAAUAUUACGCAUA	-2.44 ± 0.16	-1.19 ± 0.16
AGAAAGCAAUAUUACGCCAG	-2.29 ± 0.2	-0.433 ± 0.17

Sequence	self-splicing fitness (ln) (30 °C)	self-splicing fitness (ln) (37 °C)
AGAAAGCAAUAUUACGCCUA	-1.36 ± 0.14	-1.04 ± 0.17
AGAAAGCAAUAUUACGCGAG	-1.28 ± 0.11	-0.453 ± 0.13
AGAAAGCAAUAUUACGCGCG	-0.0244 ± 0.1	-0.00454 ± 0.14
AGAAAGCAAUAUUACGCUAU	-2.98 ± 0.18	-1.62 ± 0.18
AGAAAGCAAUAUUACGGAGG	-3.33 ± 0.16	-2.72 ± 0.3
AGAAAGCAAUAUUACGGCCG	-0.348 ± 0.11	-0.28 ± 0.14
AGAAAGCAAUAUUACGGGAC	-3.06 ± 0.26	-2 ± 0.32
AGAAAGCAAUAUUACGGUAU	-2.66 ± 0.14	-0.578 ± 0.12
AGAAAGCAAUAUUACGGUUA	-0.628 ± 0.1	-0.679 ± 0.083
AGAAAGCAAUAUUACGUACC	-0.284 ± 0.087	0.446 ± 0.12
AGAAAGCAAUAUUACGUAGC	-4.04 ± 0.22	-2.5 ± 0.2
AGAAAGCAAUAUUACGUAGU	-2.98 ± 0.15	-1.55 ± 0.1
AGAAAGCAAUAUUACGUAUC	-3.62 ± 0.3	-2.34 ± 0.24
AGAAAGCAAUAUUACGUCAA	-1.61 ± 0.11	-0.692 ± 0.1
AGAAAGCAAUAUUACGUCAC	-3.52 ± 0.3	-2.61 ± 0.38
AGAAAGCAAUAUUACGUGAC	-2.53 ± 0.32	-1.65 ± 0.24
AGAAAGCAAUAUUACGUGGG	-3.69 ± 0.17	-1.3 ± 0.12
AGAAAGCAAUAUUACGUGUU	-3.31 ± 0.15	-1.99 ± 0.12
AGACAGCAAUAUUACGAACC	-0.535 ± 0.12	-0.29 ± 0.19
AGACAGCAAUAUUACGAAGA	-3.75 ± 0.33	-2.41 ± 0.34
AGACAGCAAUAUUACGACGC	-0.912 ± 0.086	-0.726 ± 0.11
AGACAGCAAUAUUACGAGCC	-0.273 ± 0.14	-0.798 ± 0.21
AGACAGCAAUAUUACGAGGA	-3.17 ± 0.22	-0.745 ± 0.17
AGACAGCAAUAUUACGAUCC	-0.233 ± 0.083	-0.102 ± 0.11
AGACAGCAAUAUUACGAUGC	-3.36 ± 0.23	-2.33 ± 0.19

Sequence	self-splicing fitness (ln) (30 °C)	self-splicing fitness (ln) (37 °C)
AGACAGCAAUAUUACGCAGG	-3.5 ± 0.2	-1.25 ± 0.16
AGACAGCAAUAUUACGCCCG	-0.434 ± 0.17	-0.555 ± 0.24
AGACAGCAAUAUUACGCGUU	-3.47 ± 0.16	-2.11 ± 0.14
AGACAGCAAUAUUACGCUAG	-4.3 ± 0.3	-2.81 ± 0.22
AGACAGCAAUAUUACGGCCA	-1.28 ± 0.11	-0.142 ± 0.11
AGACAGCAAUAUUACGGGUG	-3.07 ± 0.09	-2.37 ± 0.1
AGACAGCAAUAUUACGUAAG	-1.33 ± 0.075	-0.396 ± 0.088
AGACAGCAAUAUUACGUGUC	-3.93 ± 0.21	-3.7 ± 0.2
AGACAGCAAUAUUACGUGUU	-3.8 ± 0.16	-2.29 ± 0.14
AGACAGCAAUAUUACGUUGC	-3.73 ± 0.24	-3.26 ± 0.37
AGAGAGCAAUAUUACGAGCA	-2.68 ± 0.46	-1.31 ± 0.27
AGAGAGCAAUAUUACGAUCU	-4.39 ± 0.42	-2.22 ± 0.2
AGAGAGCAAUAUUACGCACU	-3.16 ± 0.34	-2.41 ± 0.32
AGAGAGCAAUAUUACGCAUC	-2.22 ± 0.28	-1.91 ± 0.22
AGAGAGCAAUAUUACGCCUA	-2.6 ± 0.48	-1.08 ± 0.33
AGAGAGCAAUAUUACGCCUU	-3.56 ± 0.29	-2.16 ± 0.21
AGAGAGCAAUAUUACGCGCC	-2.58 ± 0.46	–
AGAGAGCAAUAUUACGCGGC	-2.71 ± 0.26	–
AGAGAGCAAUAUUACGCUAC	–	-2.33 ± 0.45
AGAGAGCAAUAUUACGCUUG	-2.97 ± 0.3	-2.46 ± 0.35
AGAGAGCAAUAUUACGCUUU	-3.54 ± 0.41	-2.52 ± 0.45
AGAGAGCAAUAUUACGGAAU	-3.36 ± 0.32	-1.79 ± 0.44
AGAGAGCAAUAUUACGGAGA	–	-2.11 ± 0.37
AGAGAGCAAUAUUACGGAUC	-3.76 ± 0.42	–
AGAGAGCAAUAUUACGGCGA	-2.95 ± 0.39	-1.82 ± 0.39

Sequence	self-splicing fitness (ln) (30 °C)	self-splicing fitness (ln) (37 °C)
AGAGAGCAAUAUUACGGCUC	-3.01 ± 0.27	-1.37 ± 0.25
AGAGAGCAAUAUUACGGGAC	–	-2.61 ± 0.44
AGAGAGCAAUAUUACGGGUU	-4.74 ± 0.46	-2.08 ± 0.23
AGAGAGCAAUAUUACGGUGC	-4.34 ± 0.42	-2.07 ± 0.29
AGAGAGCAAUAUUACGUAAG	-3.25 ± 0.26	-2.7 ± 0.36
AGAGAGCAAUAUUACGUAAU	-4.18 ± 0.33	-2.81 ± 0.34
AGAGAGCAAUAUUACGUAUC	–	-2.03 ± 0.17
AGAGAGCAAUAUUACGUCGA	-2 ± 0.32	–
AGAGAGCAAUAUUACGUGCU	–	-1.44 ± 0.28
AGAUAGCAAUAUUACGACCG	-1.01 ± 0.17	0.121 ± 0.32
AGAUAGCAAUAUUACGAGGC	-0.902 ± 0.39	-0.819 ± 0.21
AGAUAGCAAUAUUACGAUAC	-3.11 ± 0.26	-0.943 ± 0.19
AGAUAGCAAUAUUACGAUCG	0.112 ± 0.058	0.0462 ± 0.1
AGAUAGCAAUAUUACGAUUG	-1.65 ± 0.11	-1.81 ± 0.18
AGAUAGCAAUAUUACGCAAG	-2.2 ± 0.15	-0.0746 ± 0.16
AGAUAGCAAUAUUACGCACA	-0.827 ± 0.07	-0.123 ± 0.087
AGAUAGCAAUAUUACGCAUU	-2.76 ± 0.21	-1.02 ± 0.21
AGAUAGCAAUAUUACGCGUC	-2.53 ± 0.2	-0.587 ± 0.47
AGAUAGCAAUAUUACGGAGU	-3.25 ± 0.15	-2.33 ± 0.15
AGAUAGCAAUAUUACGGGCA	-1.12 ± 0.13	0.0415 ± 0.12
AGAUAGCAAUAUUACGGGGA	-3.46 ± 0.31	-3.05 ± 0.35
AGAUAGCAAUAUUACGGGUA	-1.35 ± 0.11	-1.8 ± 0.14
AGAUAGCAAUAUUACGGUGU	-2.01 ± 0.096	-1.15 ± 0.1
